According to patent EP4541815A1 (Huahui Health Ltd., dated 2023):

Columns and labels:
[1] = molecular target: T1, hFcγRIIa (R131) (recombinant, C-terminal 6xHis tag) (human, UniProt P12318 34-217); assay: Biacore SPR, ratio against A14 WT
T1 construct: also called hFcyR2a R131
T1 sequence: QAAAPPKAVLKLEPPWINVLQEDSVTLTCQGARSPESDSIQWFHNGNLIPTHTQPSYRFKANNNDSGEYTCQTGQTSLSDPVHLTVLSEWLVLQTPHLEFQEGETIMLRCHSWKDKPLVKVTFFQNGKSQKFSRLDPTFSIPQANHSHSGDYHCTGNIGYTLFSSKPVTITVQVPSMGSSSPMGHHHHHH

[2] = molecular target: T2, hFcγRIIIa (F158) (recombinant, C-terminal 6xHis tag) (human, UniProt P08637 17-208); assay: Biacore SPR, ratio against A14 WT
T2 construct: also called hFcyR3a F158
T2 sequence (P08637 other isoform, or with tags, fused parts or gaps): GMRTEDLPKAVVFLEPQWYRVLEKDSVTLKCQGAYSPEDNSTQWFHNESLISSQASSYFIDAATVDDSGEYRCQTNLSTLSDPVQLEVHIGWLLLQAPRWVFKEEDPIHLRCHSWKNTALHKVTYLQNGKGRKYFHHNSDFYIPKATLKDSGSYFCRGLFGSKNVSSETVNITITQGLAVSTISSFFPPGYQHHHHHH

[3] = molecular target: T3, hFcγRIIIa (V158) (recombinant, C-terminal 6xHis tag) (human, UniProt P08637 17-208); assay: Biacore SPR, ratio against A14 WT
T3 construct: also called hFcyR3a V158
T3 sequence (P08637 other isoform, or with tags, fused parts or gaps): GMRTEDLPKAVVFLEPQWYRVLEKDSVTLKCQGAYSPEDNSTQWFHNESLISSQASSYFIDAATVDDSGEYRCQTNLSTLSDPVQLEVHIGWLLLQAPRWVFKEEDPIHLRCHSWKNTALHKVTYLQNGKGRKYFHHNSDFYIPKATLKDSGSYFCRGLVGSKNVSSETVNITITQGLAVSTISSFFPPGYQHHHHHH

[4] = molecular target: T4, hFcγRIIa (H131) (recombinant, C-terminal 6xHis tag) (human, UniProt P12318 34-217); assay: Biacore SPR, ratio against A14 WT
T4 construct: also called hFcyR2a H131
T4 sequence: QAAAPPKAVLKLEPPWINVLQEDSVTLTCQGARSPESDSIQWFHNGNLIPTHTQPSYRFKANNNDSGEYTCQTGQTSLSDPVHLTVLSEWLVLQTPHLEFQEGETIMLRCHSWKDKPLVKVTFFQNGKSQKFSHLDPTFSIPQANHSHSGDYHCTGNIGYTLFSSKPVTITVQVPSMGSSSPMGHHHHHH

[5] = molecular target: T5, hFcγRIa (recombinant, C-terminal 6xHis tag) (human, UniProt P12314 16-292); assay: Biacore SPR, ratio against A14 WT
T5 construct: also called hFcγR1a
T5 sequence (P12314 other isoform, or with tags, fused parts or gaps): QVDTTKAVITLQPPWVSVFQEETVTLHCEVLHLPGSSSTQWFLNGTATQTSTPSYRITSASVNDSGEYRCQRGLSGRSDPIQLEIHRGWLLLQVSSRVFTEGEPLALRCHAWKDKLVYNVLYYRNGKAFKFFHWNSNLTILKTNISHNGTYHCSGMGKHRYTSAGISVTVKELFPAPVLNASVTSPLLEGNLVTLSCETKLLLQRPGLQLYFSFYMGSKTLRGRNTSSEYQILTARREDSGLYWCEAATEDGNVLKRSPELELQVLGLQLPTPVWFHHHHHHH

[6] = molecular target: T6, hFcγRIIb (recombinant, C-terminal 6xHis tag) (human, UniProt P31994 43-217); assay: Biacore SPR, ratio against A14 WT
T6 construct: also called hFcyR2b
T6 sequence: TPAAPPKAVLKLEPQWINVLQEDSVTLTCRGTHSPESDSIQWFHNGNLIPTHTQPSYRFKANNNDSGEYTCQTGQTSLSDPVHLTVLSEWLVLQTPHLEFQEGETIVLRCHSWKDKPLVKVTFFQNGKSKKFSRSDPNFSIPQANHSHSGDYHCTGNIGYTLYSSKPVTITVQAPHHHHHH

[7] = molecular target: T7, FcγRIIa R131 on Jurkat/NFAT-luc2p/FcγRIIa R131 cells (UniProt P12318 34-317, limits assumed); assay: cell-based or functional assay
T7 sequence (looked up): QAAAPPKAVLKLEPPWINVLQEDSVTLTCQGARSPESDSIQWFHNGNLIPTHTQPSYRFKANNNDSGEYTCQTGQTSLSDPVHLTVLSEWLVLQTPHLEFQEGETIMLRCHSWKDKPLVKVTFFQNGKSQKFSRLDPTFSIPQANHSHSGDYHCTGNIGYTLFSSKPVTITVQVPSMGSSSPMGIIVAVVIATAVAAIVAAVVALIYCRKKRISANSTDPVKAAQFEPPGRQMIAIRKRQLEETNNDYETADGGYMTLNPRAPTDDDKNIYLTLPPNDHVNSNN

[8] = molecular target: Pre-S1 domain of hepatitis B virus (L protein) on recombinant HBV D genotype virus (hepatitis B virus, D genotype); assay: cell-based or functional assay
[9] = molecular target: FcγRIIIa F158 on Jurkat/NFAT-luc2p/FcγRIIIa F158 cells (UniProt P08637 17-254, limits assumed); assay: cell-based or functional assay
[10] = molecular target: T1, hFcγRIIa (R131) (recombinant, …); assay: Biacore SPR, antibody captured on Protein G CM5 chip, hFcγR as mobile phase, pH 7.0, 1:1 Langmuir fit
[11] = molecular target: T2, hFcγRIIIa (F158) (recombinant, …); assay: as above
[12] = molecular target: T3, hFcγRIIIa (V158) (recombinant, …); assay: as above
[13] = molecular target: T4, hFcγRIIa (H131) (recombinant, …); assay: as above
[14] = molecular target: T5, hFcγRIa (recombinant, C-terminal 6xHis …); assay: as above
[15] = molecular target: T6, hFcγRIIb (recombinant, C-terminal 6xHis …); assay: as above

B1: afuco-A14 GA LS (antibody, human IgG1, lambda)
heavy: QVQLQQSGPGLVKPSQTLSLTCAISGDSVSSNSAAWNWIRQSPSRGLEWLGRTYYRSKWYNDYAVSVKSRITINPDTSKNQFSLQLNSVTPEDTAVYYCARGTRWGMDVWGQGTLVTVSSASTKGPSVFPLAPSSKSTSGGTAALGCLVKDYFPEPVTVSWNSGALTSGVHTFPAVLQSSGLYSLSSVVTVPSSSLGTQTYICNVNHKPSNTKVDKKVEPKSCDKTHTCPPCPAPELLAGPSVFLFPPKPKDTLMISRTPEVTCVVVDVSHEDPEVKFNWYVDGVEVHNAKTKPREEQYNSTYRVVSVLTVLHQDWLNGKEYKCKVSNKALPAPIEKTISKAKGQPREPQVYTLPPSRDELTKNQVSLTCLVKGFYPSDIAVEWESNGQPENNYKTTPPVLDSDGSFFLYSKLTVDKSRWQQGNVFSCSVLHEALHSHYTQKSLSLSPGK
light: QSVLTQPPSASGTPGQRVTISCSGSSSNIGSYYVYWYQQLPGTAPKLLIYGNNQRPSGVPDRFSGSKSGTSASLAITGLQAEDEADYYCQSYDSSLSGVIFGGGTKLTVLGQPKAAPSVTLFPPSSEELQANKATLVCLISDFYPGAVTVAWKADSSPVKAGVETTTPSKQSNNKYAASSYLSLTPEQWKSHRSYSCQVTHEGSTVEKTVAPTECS
Fold (KD of A14 WT over KD of afuco-A14 GA LS) [1]: 3.83 fold
Fold (KD of A14 WT over KD of afuco-A14 GA LS) [2]: 11 fold
Fold (KD of A14 WT over KD of afuco-A14 GA LS) [3]: 7.89 fold
Fold (KD of A14 WT over KD of afuco-A14 GA LS) [4]: 4.63 fold
Fold (KD of A14 WT over KD of afuco-A14 GA LS) [5]: 0.41 fold
Fold (KD of A14 WT over KD of afuco-A14 GA LS) [6]: 0.76 fold
ADCP activity, fold enhancement compared to A14 [7]: 4.7 fold
IC50 of inhibition of HBV infection of HepG2-hNTCP cells (HBeAg secretion) [8]: ~0.011 µg/mL
ADCC activity, fold enhancement compared to A14 [9]: 18.6 fold
Kd [10]: 204 nM
Kd [11]: 588 nM
Kd [12]: 123 nM
Kd [13]: 169 nM
Kd [14]: 173 nM
Kd [15]: 7470 nM
